Results on one substance are retold here after paper PMC2621155.

The assay concerns the target rapsyn, endogenous in C2C12 myotubes (mouse (endogenous in C2C12)) (UniProt P12672). Briefly: co-IP; C2C12 myotube lysates, anti-rapsyn antibody and protein A agarose beads, blot for α-actinin; myotubes untreated, with agrin 10 ng/ml 18 hr, with agrin and STI-571, or with agrin and then 10 μM carbachol for 4 hr.
UniProt P12672, sequence (P12672 whole entry): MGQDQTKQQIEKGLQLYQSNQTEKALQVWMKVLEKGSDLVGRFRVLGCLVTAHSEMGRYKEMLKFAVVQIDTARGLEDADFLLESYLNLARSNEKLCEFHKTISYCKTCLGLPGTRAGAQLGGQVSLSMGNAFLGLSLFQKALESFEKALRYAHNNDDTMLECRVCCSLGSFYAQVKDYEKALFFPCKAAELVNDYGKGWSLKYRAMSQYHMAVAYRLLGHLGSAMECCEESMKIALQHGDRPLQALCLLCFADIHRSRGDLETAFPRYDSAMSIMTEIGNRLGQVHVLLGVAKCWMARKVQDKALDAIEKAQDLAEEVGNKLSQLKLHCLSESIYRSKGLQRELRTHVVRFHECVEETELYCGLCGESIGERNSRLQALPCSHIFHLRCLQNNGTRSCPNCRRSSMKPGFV

“α-actinin, endogenous in myotubes (from UniProt Q9JI91 1-894) (natural protein)” displayed a fold increase of the co-precipitation in agrin-treated against untreated myotubes of 6 to 10 fold.
